According to US20260098092A1 (CHULALONGKORN UNIVERSITY, published 2026):

Key:
[1] = target: human PD-1 on PD-1-expressing Jurkat effector cells (human, UniProt Q15116 25-288); test: cell-based or functional assay
[2] = target: T1, recombinant human PD-1 His-tag protein (R&D Systems) (human, UniProt Q15116 25-167); test: ELISA, PD-1 His-tag coated on plate, anti-mouse IgG Fc-HRP detection
T1 construct: Bought reagent; Used for the ELISA (coated) and for SPR (analyte); also called PD-1 protein; human PD-1 protein; not shown: His-tag
Method: ELISA technique was used to select hybridoma mini-pools producing anti-PD-1 antibodies using the following procedure. MaxiSorp ELISA plate was coated with PD-1 His-tag (R&D System) in PBS buffer (10 ng/100 μL/well) at 4° C. overnight. […] The culture supernatant of each mini-pool (100 μL) was added to the plate then incubated for 1 hour at 37° C. After washing, the plate was probed with goat anti-mouse IgG Fcγ-HRP (Jackson Immuno Research) diluted 1:8,000 in PBST (100 μL/well) and incubated for 1 hour at 37° C. […] 1 M H₂SO₄ (50 μL/well) was used to stop the reaction. […] Hybridoma mini-pools with absorbance values of more than 1.0 were selected for further screening.
The purified antibodies were 2-fold serial diluted for eleven rounds starting from 2 μg/mL until reaching the final concentration of 0.977 ng/mL. The PD-1 binding activity of purified antibodies was evaluated by ELISA following the procedure mentioned in Example 2. The half-maximal effective concentration (EC₅₀) was calculated using GraphPad Prism® software.

[3] = target: T1, recombinant human PD-1 His-tag protein …; test: SPR, Biacore T200, as in Example 8 (antibody on Protein G chip, PD-1 His-tag injected)
Method: The Biacore T200 instrument, equipped with a Protein G sensor chip (GE Healthcare), was used to determine the binding kinetics between chimeric anti-PD-1 antibodies and PD-1 protein. Each purified chimeric anti-PD-1 antibody (1 μg/mL) was injected into the chip with a flow rate of 30 μL/min for 60 sec. […] The HBS-EP+buffer (GE Healthcare) was used as a buffer blank and diluent. The association constant (kₒₙ), dissociation constant (koff), and equilibrium constant (KD) values were calculated using Biacore T200 evaluation software (version 3.1) with a 1:1 Langmuir binding model curve fitting.

T1 sequence (Q15116 25-167 limits assumed): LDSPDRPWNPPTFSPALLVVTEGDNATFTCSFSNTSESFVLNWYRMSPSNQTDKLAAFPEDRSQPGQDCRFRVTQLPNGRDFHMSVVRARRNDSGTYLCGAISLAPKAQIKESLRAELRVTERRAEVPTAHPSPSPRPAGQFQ
Sequence of human PD-1 on PD-1-expressing Jurkat effector cells (Q15116 25-288): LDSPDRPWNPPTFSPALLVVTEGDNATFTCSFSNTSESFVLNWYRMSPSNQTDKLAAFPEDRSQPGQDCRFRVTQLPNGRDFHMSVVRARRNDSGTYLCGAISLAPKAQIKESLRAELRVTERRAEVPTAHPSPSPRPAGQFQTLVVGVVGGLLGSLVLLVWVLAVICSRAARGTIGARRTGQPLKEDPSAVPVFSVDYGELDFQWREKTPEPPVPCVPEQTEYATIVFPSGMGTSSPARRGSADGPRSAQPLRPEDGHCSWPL

Binder	PD-1/PD-L1 blockade bioassay, IC50 [1]	EC50 [2]	Kd [3]	koff [3]	kon [3]
mCUSB0126 (antibody, V domains shown, Mouse monoclonal antibody purified from hybridoma) VH: VKLVESGGDLVKPGGSLKLSCAASGFPFSSYLMSWVRQTPEKRLEWVAAISGGGRDTYYPDNVKGRFTISRDNARNILYLQMSSLRSEDTAVYYCATRGSYAMDYWGQGTSVTVSS VL: DIQMTQSPASQSASLGESVTITCLASQTIGTWLAWYQQKPGKSPQILIYAATNLADGVPSRFSGSGSGTKFSFKISSLQAEDFVSYYCQQLYSIPWTFGGGTKLEIK	0.846 µg/mL	0.0442 µg/mL			
mCUSB0124 (antibody, V domains shown, Mouse monoclonal antibody purified from hybridoma) VH: QIQLVQSGPELKKPGETVKISCKASGYIFTNYGVTWVKQTPGKGLKWMTWINTNTGEPTSAEEFKGRFDFSSETSATTAYLQINNLKNEDTATYFCVRIRENAMDYWGQGTSVTVSS VL: DIQMTQSPASQSASLGESVTITCLASQTIGTWLAWYQQKPGKSPQLLIYAATRLAVGVPSRFSGSGSGTKFSFKISRLQAEDFVSYYCQQLYSTPFTFGSGTKLEIK	6.58 µg/mL	0.104 µg/mL			
mCUSB0103 (antibody, V domains shown, Mouse monoclonal antibody purified from hybridoma) VH: DVKLVESGGGLVKPGGSLKLSCAASGFTFSSYTMSWVRQTPEKRLEWVAAISGGGSYTYYADSVKGRFTISRDNAKNTLSLQMSSLKSEDTAMYFCTSPYDFAMDYWGQGTSVTVSS VL: DIQMTQTTSSLSASLGDRVTISCRASQDITNYLNWYQQKPDGSVKLLIYYTSRLHSGVPSRFRGSGSGTDYSLTISNLEQEDIATYFCQQGNTLPWTFGGGTKLEIK	0.843 µg/mL	0.0494 µg/mL			
mCUSB0123 (antibody, V domains shown, Mouse monoclonal antibody purified from hybridoma) VH: QVQLQQSGPELVRPGESVKISCKGSGYTFTDYVMHWVKQSHAKSLEWIGVITIYNDITNYNQKFKGKATMTIDKSSSTAYMELARLTSEDSAIYYCAREGYDSYWYFDVWGAGTTVTVSS VL: DVLMTQTPLSLPVSLGDQASISCRSSQTIVHSNGNTYLEWYLQKPGQSPKLLIYKVSNRFSGVPDRFSGSGSGTDFTLKISRVEAEDLGVYYCFQGSHLPYTFGGGTKLEIK	2.43 µg/mL	0.0701 µg/mL			

Now from value to binder:

PD-1/PD-L1 blockade bioassay, IC50 [1]	EC50 [2]	Kd [3]	koff [3]	kon [3]	Binder
1.83 µg/mL	0.074 µg/mL				mCUSB0129 (antibody, V domains shown, Mouse monoclonal antibody purified from hybridoma) VH: VKLVESGGGLVKPGGSLKLSCAASGFPFSSYLMSWVRQTPEKRLEWVAAISGGGRDTYYPDSVKGRFTISRDNARNILYLQMSSLRSEDTALYYCARRGSYAMDYWGQGTSVTVSS VL: DIQMTQSPASQSASLGESVTITCLASQTIGTWLAWYQQKPGKSPQILIYDATNLADGVPSRFSGSGSGTKFSFKISSLQAEDFVSYYCQQLYSIPWTFGGGTKLEIK
2.71 µg/mL	0.109 µg/mL				mCUSB0125 (antibody, V domains shown, Mouse monoclonal antibody purified from hybridoma) VH: DVQLRESGPGLVKPSQSLSLTCTVTGYSITSDYAWNWIRQFPGNKLEWMGYIYYSGTTSYNPSLKSRISITRDTSKNQFFLQLNSVTTEDTATYYCARNYGSAFYYFDYWGQGTTLTVSS VL: DILMTQSPSSMSVSLGDTVTITCHASQGISSNIGWLQQKPGKSFKGLIYRGTNLEDGVPSRFSGSGSGADYSLTISSLESEDFADYYCVQYAQFPPTFGGGTKLEIK
		0.0208 nM	9.31e-05 s⁻¹	4.48e+06 M⁻¹ s⁻¹	zCUSB0136.8-3 (antibody, V domains shown, also called CUSB0136-BMVH.3c with CUSB0136-BMVL.2b) VH: QVQLQESGPGLVKPSETLSLTCTVSGFSLTVYDIIWIRQSPGKGLEWLGVIWTGGDTTYNSAFMSRLTISKDTSKNQISLKMSSLTAADTAVYYCARDWAYWGQGTLVTVSS VL: DIVLTQSPDSLAVSLGERATISCRASESVDNYGNSFIQWYQQKPGQPPKLLIYFASYLQSGVPDRFSGSGSGTDFTLTISSVQAEDVATYYCHQNNEDPFTFGGGTKLEIK
		0.0159 nM	7.02e-05 s⁻¹	4.42e+06 M⁻¹ s⁻¹	zCUSB0136.8-4 (antibody, V domains shown, also called CUSB0136-BMVH.3d with CUSB0136-BMVL.2b) VH: QVQLQESGPGLVKPSETLSLTCTVSGFSLTVYDIIWIRQSPGKGLEWLGVIWTGGDTTYNSAFMSRLTISKDTSKNQISLKMSSLTAADTAVYYCARDWMYWGQGTLVTVSS VL: DIVLTQSPDSLAVSLGERATISCRASESVDNYGNSFIQWYQQKPGQPPKLLIYFASYLQSGVPDRFSGSGSGTDFTLTISSVQAEDVATYYCHQNNEDPFTFGGGTKLEIK
